# Measured values as given in publication PMC10814857, “Functional Classification and Interaction Selectivity Landscape of the Human SH3 Domain Superfamily” (Cells, 2024).
# Read-outs that look alike come from different tables or passages of the source.
# Assays:
# Assay in all cases: FP
# [1] = molecular target: P7, fluorescein-labelled proline-rich peptide from the SOS1 proline-rich domain (human) (UniProt Q07889)
# [2] = molecular target: RP2, fluorescein-labelled reference peptide from the N-terminal extension of the RHO GTPase WRCH1/RHOU (human) (UniProt Q7L0Q8)
# Chain of RP2, fluorescein-labelled reference peptide from the N-terminal extension of the RHO GTPase WRCH1/RHOU (human) (Q7L0Q8 whole entry, looked up, the tested form may be a part): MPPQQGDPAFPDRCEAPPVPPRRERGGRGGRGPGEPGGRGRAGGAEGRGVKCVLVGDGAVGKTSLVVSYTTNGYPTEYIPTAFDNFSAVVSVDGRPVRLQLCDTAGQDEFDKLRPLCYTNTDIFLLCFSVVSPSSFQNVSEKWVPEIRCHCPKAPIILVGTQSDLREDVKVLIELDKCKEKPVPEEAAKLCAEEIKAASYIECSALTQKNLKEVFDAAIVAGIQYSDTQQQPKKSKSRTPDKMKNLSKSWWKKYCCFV
# [3] = molecular target: P3, fluorescein-labelled proline-rich peptide from the SOS1 proline-rich domain (human) (UniProt Q07889)
# [4] = molecular target: P2, fluorescein-labelled proline-rich peptide from the SOS1 proline-rich domain (human) (UniProt Q07889)
# [5] = molecular target: P5, fluorescein-labelled proline-rich peptide from the SOS1 proline-rich domain (human) (UniProt Q07889)
# [6] = molecular target: RP1, fluorescein-labelled reference peptide, a SOS1 derivative encompassing part of P3 (human) (UniProt Q07889)
# [7] = molecular target: P4, fluorescein-labelled proline-rich peptide from the SOS1 proline-rich domain (human) (UniProt Q07889)
# [8] = molecular target: P1, fluorescein-labelled proline-rich peptide from the SOS1 proline-rich domain (human) (UniProt Q07889)
# Chain of CRK-1 SH3 domain, GST cleaved (P46108 127-301): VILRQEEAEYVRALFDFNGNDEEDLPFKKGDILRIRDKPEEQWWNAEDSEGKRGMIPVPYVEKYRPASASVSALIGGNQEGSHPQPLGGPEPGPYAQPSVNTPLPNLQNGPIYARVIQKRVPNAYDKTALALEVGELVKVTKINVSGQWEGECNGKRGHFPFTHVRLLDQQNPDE
substance,measurement,setting,value
SORBS1-1,Kd,[1],13.2 µM
SH3PXD2A-1,Kd,[2],21 µM
same,Kd,[3],18 µM
same,Kd,[4],44 µM
SRC,Kd,[1],13.3 µM
same,Kd,[3],2 µM
"CRK-1 SH3 domain, GST cleaved (from UniProt P46108)",Kd,[1]; domain or fragment,18.1 µM
same,Kd,[3]; domain or fragment,12.9 µM
GRB2-2,Kd,[3],12 µM
same,Kd,[5],35 µM
same,Kd,[6],3.4 µM
same,Kd,[7],20 µM
ITSN1-5,Kd,[2],23 µM
same,Kd,[8],23 µM
same,Kd,[7],12 µM
RIMBP3B-1,Kd,[1],15 µM
same,Kd,[4],21 µM
GRB2-1,Kd,[3],15 µM
same,Kd,[5],62 µM
same,Kd,[6],11 µM
same,Kd,[7],60 µM
ITSN1-1,Kd,[2],11 µM
same,Kd,[6],39 µM
same,Kd,[7],6.6 µM
